Results reported in the supplement of paper PMC6755084.

B1: minF1; a variant is named by its letters at N, in order (parent)
chain: GAGACCGCAACTGAAAAGTTGTTNNNNAANNNNGGNTNNATTTCTGCACGTAGAAGCAAAAGGC

Variants of: B1
Experiment: fraction ligated after 30 min (ligated reads / total reads); higher = more ligase activity
Conditions: with F1*subA RNA substrate (template-directed ligation), 42 °C
Experimental: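 Chip-synthesised pool of minF1 ligase ribozyme variants (single and double substitutions, single to quadruple deletions, bulge and P2 designed variants) was transcribed with T7 and reacted as a pool with excess substrate F1*subA for 30 min at 42 C in 50 mM EPPS pH 8.5, 25 mM MgCl2. Ligated and unligated RNAs were separated by PAGE, barcoded by RT and deep sequenced; fraction ligated = ligated reads / total reads, relative activity = FL / FL of wild-type minF1 (0.76); sequencing FL correlated with PAGE (R2 = 0.98). Sequences are the DNA template of the ribozyme.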

Variant	fraction ligated
ATAGGATGTGA A29T	0.00303
ATAGGATGTGA A29G	0.00633
ATAATGAGTGA	0.00461
ATCAAATTGTA A28G	0.00076
ATCATGAGTGA A28G	0.00204
ATCATGGTTGA	0.0043
ATAGAATGTGA	0.00417
ATCAGGATGTG A29T	0.0272
ATCGATGAGTT G34T T37G	0.00178
ATCGATGGGGT G34A G35T T37G A40T	0.00147
ATCAAAGTGTG A28G	0.00272
ATCATGGAGTT G34T T37G A40G	0.00188
ATCAAGATGTG A28G	0.0128
ATAGTGGAGTT G34T T37G A40G	0.000271
ATCAATATGTA A28G	0.00429
ATAGTGGTGTA	0.0012
ATAGTGGTGTG	0.00637
ATCAGGATGTA A29T	0.00407
ATCGATGAGTA	0.00221
ATCGATGAGTG	0.00474
ATCAAGGAGTA A28G G34T	0.00153
ATCAAATGGTT A28G G34A T37G A40G	0.000551
ATCAAGGTGTG A28G	0.0012
ATCAATGAGTT A28G G34T T37G A40G	0.000608

Variant	fraction ligated
ATCATGGTGTG A28G	0.0033
ATCAATGGTGA	0.0039
ATAGAGGTGTG	0.00428
ATAGAGGTGTA	0.00141
ATCATGGTGTA A28G	0.0034
ATAATGGAGTA G34T	0.00307
ATCGAGAGTGA	0.00383
ATCAATGGGTT A28G G34A T37G A40G	0.000541
ATCATATGTGA	0.00281
ATAGATGGGTT G34A G35T T37G A40G	0.00103
ATCAAATGGTT A28G G34T T37G A40G	0.000795
ATCAAAGGGTG A28G	0.0051
ATCATGGAGTT G34T T37G	0.00293
ATCGAGTGTGA	0.00242
ATCAAATGGGT A28G G35A T37G A40T	0.00114
ATCAATGAGTA G34T	0.0033
ATCATGGAGTG G34T	0.0119
ATCAAGGAGTT G34T T37G	0.00324
ATAATGGATGA	0.00189
ATCGATGAGTT G34T T37G A40G	0.00104
ATAGAGGAGTA G34T	0.00281
ATAGGGAGTGA	0.00238
ATCAAGGAGTA G34T	0.00413
ATCAAGAGTGA A28G	0.00247

Variant	fraction ligated
ATCAAATGGTT A28G T37G A40G	0.0011
ATCAGGATGTA A28G A29T	0.00157
ATCGAGGAGTT G34T T37G	0.00239
ATAGATGATGA	0.00363
ATCAATGTTGA	0.00356
ATCAGGTGTGA A29T	0.00874
ATCAATGATGA A28G	0.000976
ATCAAATGGTT A28G G35T T37G A40G	0.00187
ATAGATAGTGA	0.00268
ATAGATGTGTA	0.00402
ATAGATGTGTG	0.00629
ATCAAATTGTG A28G	0.00512
ATCAGGATGTG A28G A29T	0.00377
ATAGAGATGTG	0.00764
ATAGAGATGTA	0.00327
ATCAAATAGTT A28G G34T T37G	0.00135
ATCAATGGGTT G34A G35T T37G	0.00168
ATCAATGAGTG	0.00492
ATCAATGAGTA	0.00236
ATAGGATGTGA	0.00396
ATCAAGGAGTG G34T	0.00633
ATAGATGAGTA	0.00311
ATAGATGAGTG	0.0071
ATCATGGATGA	0.00299

Variant	fraction ligated
ATAGATATTGA	0.00398
ATCAATGGGTA A28G G34A	0.00228
ATCAATGGGTA A28G G34T	0.00241
ATAGATGGGTT G34T T37G	0.00071
ATCAAAGAGTA A28G	0.0017
ATCAGATGTGA A29T	0.00586
ATCAGATGTGA A29G	0.0024
ATCAATATGTG	0.00446
ATCAATATGTA	0.00288
ATAATGGAGTG G34T	0.0113
ATCAAAGGGTT A28G G34T T37G	0.00171
ATCGAGATTGA	0.00372
ATCAAAATGTG A28G	0.00629
ATCAAATGGGT A28G G35T T37G A40T	0.00169
ATCATGGATGA A28G	0.00362
ATCGATGGGTA G34T	0.00207
ATCGATGGGTA G34A	0.00165
ATCATGTGTGA	0.00648
ATCAAATGGTA A28G G34T	0.00212
ATCAAATGGTA A28G G34A	0.00267
ATCATGGAGTA G34T	0.00594
ATCAATGGGTG A28G G34A	0.00717
ATCAATGGGTG A28G G34T	0.00456
ATCAATGAGTT G34T T37G A40G	0.00152

Variant	fraction ligated
ATAATGGAGTA	0.00371
ATAATGGAGTG	0.00646
ATCAAATGGTT A28G T37G	0.00127
ATCAATGAGTT G34T T37G	0.00278
ATCATGGTTGA A28G	0.00132
ATAGAGGAGTG G34T	0.0028
ATAGTATGTGA	0.00386
ATAGATGAGTT G34T T37G	0.00193
ATCAATGGTGA A28G	0.00319
ATCAAATAGTA A28G G34T	0.00133
ATAGAGATTGA	0.0019
ATCATGGAGTA A28G	0.00253
ATCGATATGTA	0.0031
ATCGATATGTG	0.00524
ATCAAGGAGTT A28G G34T T37G	0.00162
ATCAGGATGTG A28G	0.0124
ATCAAGTGTGA	0.00229
ATCGATGATGA	0.00308
ATCAAATAGTT A28G G34T T37G A40G	0.0013
ATCAAATGGTT A28G G34T T37G	0.000947
ATCAAGTGTGA A28G	0.00275
ATCGAGGAGTA	0.00327
ATCGAGGAGTG	0.0042
ATCAGGAGTGA A29T	0.00323

Variant	fraction ligated
ATCATGGAGTA	0.00426
ATCATGGAGTG	0.00597
ATCAAATGGTT A28G G35A T37G	0.00104
ATAGATGGGTT G34A T37G	0.000508
ATCAATGGGTT G34T T37G A40G	0.00223
ATCAAAGGGTT A28G G34A T37G A40G	0.000889
ATCAATGGGTG	0.00492
ATCAATGGGTA	0.00273
ATCAGGTGTGA A28G	0.00256
ATAGGATGTGA A28T A29G	0.0105
ATCATGGAGTG A28G	0.00442
ATAGAGGAGTT G34T T37G	0.00132
ATCAAGATGTA A28G	0.00207
ATAGATGGGTT G34A T37G A40G	0
ATCAATGGGTT G34A T37G	0.001
ATCAATTGTGA A28G	0.00238
ATCAATGGGTT G34A T37G A40G	0.00153
ATCATGGAGTT A28G G34T T37G A40G	0.00132
ATCATGATGTG A28G	0.0138
ATCAAAGGGTT A28G G34A G35T T37G	0.00185
ATCAGATGTGA	0.00333
ATCATGGAGTT A28G G34T T37G	0.00165
ATCGATGAGTG G34T	0.0033
ATCAATGAGTT A28G G34T T37G	0.00246

Variant	fraction ligated
ATCAATGAGTA A28G	0.00241
ATCATGGAGTG A28G G34T	0.0152
ATCAATGGGTT A28G G34A T37G	0.00259
ATAGGGATTGA	0.00436
ATAGATGGGGT G34A G35T T37G A40T	0.00172
ATCAAGGAGTA A28G	0.00255
ATAGATATGTA	0.00365
ATAGATATGTG	0.013
ATCAAAGAGTT A28G G34T T37G A40G	0.00143
ATCATGATTGA A28G	0.00281
ATCAATGTTGA A28G	0.0018
ATCAGATGTGA A28G	0.00527
ATAATGGTTGA	0.00319
ATCAGGAGTGA	0.00543
ATCGAGGAGTT G34T T37G A40G	0.000736
ATAATGATTGA	0.00291
ATCAAGGATGA	0.000429
ATCAATATTGA	0.00211
ATAATGTGTGA	0.00221
ATCAAAGAGTT A28G G34T T37G	0.00139
ATAGGGATTGA A29T	0.0025
ATAGGGATGTA	0.0024
ATAGGGATGTG	0.00618
